Laboratory results taken from a protein production outcome set (Wang et al. 2014).

Experiment: label from the status in PepcDB records
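Further: failed if final PepcDB status was selected cloned or expressed and not failed if soluble or beyond.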

Row | Sequence | protein production
1 | MEVAVEKAVAAAAAASAAASGGPSAAPSGENEAESRQGPDSERGGEAARLNLLDTCAVCHQNIQSRAPKLLPCLHSFCQRCLPAPQRYLMLPAPMLGSAETPPPVPAPGSPVSGSSPFATQVGVIRCPVCSQECAERHIIDNFFVKDTTEVPSSTVEKSNQVCTSCEDNAEANGFCVECVEWLCKTCIRAHQRVKFTKDHTVRQKEEVSPEAVGVTSQRPVFCPFHKKEQLKLYCETCDKLTCRDCQLLEHKEHRYQFIEEAFQNQKVIIDTLITKLMEKTKYIKFTGNQIQNRIIEVNQNQKQVEQDIKVAIFTLMVEINKKGKALLHQLESLAKDHRMKLMQQQQEVAGLSKQLEHVMHFSKWAVSSGSSTALLYSKRLITYRLRHLLRARCDASPVTNNTIQFHCDPSFWAQNIINLGSLVIEDKESQPQMPKQNPVVEQNSQPPSGLSSNQLSKFPTQISLAQLRLQHMQQQVMAQRQQVQRRPAPVGLPNPRMQGPIQQPSISHQQPPPRLINFQNHSPKPNGPVLPPHPQQLRYPPNQNIPRQAIKPNPLQMAFLAQQAIKQWQISSGQGTPSTTNSTSSTPSSPTITSAAGYDGKAFGSPMIDLSSPVGGSYNLPSLPDIDCSSTIMLDNIVRKDTNIDHGQPRPPSNRTVQSPNSSVPSPGLAGPVTMTSVHPPIRSPSASSVGSRGSSGSSSKPAGADSTHKVPVVMLEPIRIKQENSGPPENYDFPVVIVKQESDEESRPQNANYPRSILTSLLLNSSQSSTSEETVLRSDAPDSTGDQPGLHQDNSSNGKSEWLDPSQKSPLHVGETRKEDDPNEDWCAVCQNGGELLCCEKCPKVFHLSCHVPTLTNFPSGEWICTFCRDLSKPEVEYDCDAPSHNSEKKKTEGLVKLTPIDKRKCERLLLFLYCHEMSLAFQDPVPLTVPDYYKIIKNPMDLSTIKKRLQEDYSMYSKPEDFVADFRLIFQNCAEFNEPDSEVANAGIKLENYFEELLKNLYPEKRFPKPEFRNESEDNKFSDDSDDDFVQPRKKRLKSIEERQLLK | not failed
2 | MAVVGFDAAKISILDENEKVTDTFTIDRSSGGTIEANISGLAPNMNVVYASNVPFYVSAKGTSEVKCELTVADLDDLGTEAVNKILGREQDSTTKITKVGVNTTPPYCVLELISKDKQGKGLFLGLLKGKFTFDGEDMKTSDNNGSQLSEDKVTMQCISRKDGYIYAKAKEADGTTQADFEKFIMPAATAPAAG | failed
3 | MEWKLERTAPRRVRTEEEMLWESIMRVLSKDLKQKRSQDSANVLDSVNATYSDFKSNFAKRLSAEVPVASSPITTRWQQSQTRALSSDSFGEEQSTTYLPEASGSVLKTPPEKETLTLGSCKEQLKTPSKGISETSNSALHFCKAPHAMDRDWKESVASKGQKCLKQLFVTQNVVQQANGKMQLCEQSECVWKGCKDGVRDESFHLKSSGDINDSILQPEVKIHITGLRNDYYLNILDWSFQNLVAIALGSAVYIWNGENHNGIENIDLSLTCNYISSVSWIKEGTCLAVGTSEGEVQLWDVVTKKRLRNMLGHLSVVGALSWNHFILSSGSRLGRVYHHDVRVAQHHVGTLRHKQAVCALKWSPDGRLLSSGCSDGLLTIWPHDPGASAQGQPLKVITQSTAVKAMDWCPWQSGVLAIGGGMKDGRLHILDINAGKSIQTPSTNSQICSLIWLPKTKEIATGQGTPKNDVTVWTCPTVSRSGGFFGHRGRVLHLALSPDQTWVFSAAADGTASVWNCY | failed
4 | FMPTEKDVKTLQLTMKEYEAKDDWQLYLWKENEDFVGIMGIVKKENQVLEIQHLSVNPSHRHVGIGTKMVQELKSKFLEFTICGNEQTASFCEKC | failed
5 | MRILLTTLNAKYIHVNLALRYLRACCRDLPHTFILDEFTINDHPEHIAAAIYRHRPDLVAFSCYIWNIEPTLAVAAILKKVRPELTILCGGPEVSFDTAAFLAQNPQIDLVITGEGEIPFRALLEQLAGQQRPPAGNREEPLTASMYRPAGGRPAPGPVPDPAAIPGLAWRRGAETIVNPPAPPLRDLDTIPFPYQEDLDAAGNELSQRTVYYETSRGCPFACGFCLSSTTEGLRYFSLERVRDDLERLLKAGVREIKFVDRTFNAHKKRALAIWEFLLSRRPRARCYFEIAGDRLDEEMLAHLNRVPPDLFQFEIGVQTIDAGVNARCNRRQDWARLAANTRRLREMGSIRLHLDLIAGLPGETYAGVGESFDAVVALKPHEIQLGFLKLLKGTTLRARADEFGYLFLDRPPYQVLASSAITYEEMLRLHAIEGLLKYYGNSHLADHAFAYLAATAFDGSYFAIYEALAAWWEARGLLRRGHSQRDLFNHLASFAIHLARGIATRVTVPPLPGYHDSILEINSHGDTPASGAEHSGCARNLTPAQLDRFYQLLKFDCLCRDRSRNFPGWMPPSPLTEEERSNWMARITTPRSMEKYMPGLVKESPANLRRHGFIELFPCHPERPEEDNPTIVFFYYGPPGSETRVYYLQAPPLVV | failed
6 | MFSSFSSRRRFRDLSDAEILALAISSEEDDARIYRSYADRLRAPYPGTAALFEAMAEEEDSHRRRLIGTFRDRFGETIPLIRREHVEGYPSRKPVWLLETLPLERVRREAWEMENAARSFYETAARHVTDASTRKLLGDLAAAEAAHEHRAERLAEEHLTDEATAAEDETARRQFILTWVQPGLAGLMDGSVSTLAPIFATAFATQDPATTFQVALAASVGAGISMGFTEAAHDDGVLSGRGAPWKRGLASGVMTTAGGLGHALPYLIPDFAWATGIAIAVVFFELWAIAWIQNRYMETPFLRAALQVVLGGGLVLAAGILIGFG | failed
7 | MKKLPLVFSGCLLGLAGAGNLILDTLPVLSHLFSLIGLVLWIYFLILHLFNWKETKQELTKPPLLSGMATFPMAGMILSTYVFRVFSYLPLVAQGIWWFSFLLDLTLIAGFTIKFACPGRRVHATPSWTVLYVGIAVAALTYPLVGIIEIAYATLSFGFLLTFYLYPLIYSDLKKHPLPLALLGQEGIYCAPFSLLLASLVRVGGTSLPTWVLIVMILASQSFFFFVLTRLPNILKQGFQPAFSALTFPTIITATSLKMAQGILKLPFLDYLVLAETIICLTILFFVLGAYLIWLRKKV | failed
8 | MLVTVMIPTYNQKDYVGSAIESALAQTYADLEIVVADDASPDPGVAKVLERYRNHPKVRLYRNAQNLGRVANYRKTLYERARGEWVINLDGDDYLVDPCFVEDAVGVVKKHPDIVAVLGGRKVLQASGTHKVQQANVCLSGRVAPRDVFSGILDGTLFPYHNATLYSRTHALAIGFYEQDIVSSDLESFLRLFARGAVGVLPRIVGVWREHSGNTSGTMAFSDYLANIQVFESVMHTAEEPDIAVKSSFLKSWSSRYAYSKGKDYAYRLLKDSDSPSLCFGYLKRLSKVSSVAALRILIQPKVLFNLLARALPSQISRCFR | failed
9 | MEKPDIQRLTNFLIVYTKTLLGAGTYTARVAKCVGRIAEVYGYEININFFFHHITLNVVDMDDNSIQRTYVIPNHHAHVNFKLIFDLSALSWAIYDHKYDLEKAKVVFEQISQQKKHSYLLNLLFVSMANSAFCRLFGGDFGAGNLVFFATFVGLLLRYILTKAKIDLRIQYILCSFISSWFVFFGLDMGYTNTSDVALGSSILYLIPGVFFINSVIDILKDHILMGLSRIISVAILICCIALGIYMTLSISDFGILR | failed
10 | MEEEEARQVVIDNDLKKKIKETVKKILKRSSLLEITEIKAREEASSELNLDLSRDPYKIIVREAVDSFIEKAIMTIDTEMGKLHTQIVEDVDGEVTENATKTTTKKKKKKKAKKKVEEEESSPA | failed
11 | MPVAATNSETAMQQVLDNLGSLPSATGAAELDLIFLRGIMESPIVRSLAKAHERLEETKLEAVRDNNLELVQEILRDLAQLAEQSSTAAELAHILQEPHFQSLLETHDSVASKTYETPPPSPGLDPTFSNQPVPPDAVRMVGIRKTAGEHLGVTFRVEGGELVIARILHGGMVAQQGLLHVGDIIKEVNGQPVGSDPRALQELLRNASGSVILKILPSYQEPHLPRQVFVKCHFDYDPARDSLIPCKEAGLRFNAGDLLQIVNQDDANWWQACHVEGGSAGLIPSQLLEEKRKAFVKRDLELTPNSGTLCGSLSGKKKKRMMYLTTKNAEFDRHELLIYEEVARMPPFRRKTLVLIGAQGVGRRSLKNKLIMWDPDRYGTTVPYTSRRPKDSEREGQGYSFVSRGEMEADVRAGRYLEHGEYEGNLYGTRIDSIRGVVAAGKVCVLDVNPQAVKVLRTAEFVPYVVFIEAPDFETLRAMNRAALESGISTKQLTEADLRRTVEESSRIQRGYGHYFDLCLVNSNLERTFRELQTAMEKLRTEPQWVPVSWVY | not failed
12 | LKVMLRPILPEDEPKHLAFDNSLSDEDRYKRYFGVRSKMTHEEMAVLTQIDYAREMAFIATAKGPDGDDITLGAVRASIDPDNTEAEFAMAVRGDHQGIGLGKLLLEKLIKYYQANDTPVLTGFTMFENRNMASLAKNLGFKVTFDME | failed
13 | MSKRVLMVVTNHTTITDDHKTGLWLEEFAVPYLVFQEKGYDVKVASIQGGEVPLDPRSINEKDPSWAEAEAALKHTARLSKDDAHGFDAIFLPGGHGTMFDFPDNETLQYVLQQFAEDGRIIAAVCHGPSGLVNATYKDGTPIVKGKTVTSFTDEEEREVGLDVHMPFLLESTLRLRGANFVRGGKWTDFSVRDGNLITGQNPQSSRSTAEKVVAALEERE | not failed
14 | MILVFLDNMASIKDLNLIDEINDSSNLKLINDRLKLLFWTKNPEITDEENKKKYLDFLNEYWDTLRAYGAGDLELFPDKINYLTLILAANSKNHNIYIKKLAEKYAEKIPIEDGDSKINIWDFIDVAANSRNNDLHLERMILEGDTVLLNQKNQSIYNFEKIRLKLKNYVEKVRNAEMPKEIKDLLVKKSEEAFEGINIGYNIESGIKVSTKEYSGEIPEDWHPPCMREILNDILSGGSPSHYARRSFVVYRFVSQFDPNLRPIEEGIITNRSAQDIATEEQIERFLDEIINIFKSVGDFDVEKTKYYISHNIGYKVANHITHCEYCKNWRDDGGKGLGYYCRPDSTCSRKDIIHPLDYLCHNINRHVKKSELEHHHHHH | failed
15 | MDINKLKLTPDSSIKEALKIVGQERVRLGIIVDKKDKFLGVISDSNIRKALISGKTLKDSIKDIYTKNPITIKENTSKEQLLKISAKTDIYDFPVLDEKGQILSIKSISSLLKANPNSIIIMAGGLGSRLKELTKDTPKPMLKVGKKPILESIIQRLKNQNFENFIFCVNYKKQIIEDYFQKGQKFGVKISYIKERKKLGTAGALSLIKQEFKESFIVMNADILTELDFNALLKAHKKSKALMSVCVREFEQQIPYGVITQKQGFIENIEEKPTQKFLVSAGIYVLENEILNLIAKNEYLDMPELIKLVLQKGKVNTYIINDYWIDIGRPDEFLKANEDFKLEHHHHHH | not failed
16 | MAVAQADPGSDPAGGARFFCTAGRGLEPFLMREVRARLEATQVEYISGKVFFTTCSDLPSMKKLKSAERLFVLIKKQLPIAVSSLHKGKILNEMQRFVNDDPGSWLEAISLWKKLLEHDPKREKVSQRDANPLKRKAGENETIIAKKLKVEEKQEVAKDHGESQEDKLLQGSPEQGEAVTRTELQDHRLNSTTEKAADAQDQEDLTFRVSCRCTGNVRKVITGQEAGRVIGLALMRQFGWKADLRNPNIEIFMHLSDAYSVVGIPLLRMPLASRTYIQTAGLRSTIAWAMASIAEIKAGALVLDPMCGLGTILVEAAEEWPDVFYMGADMSDAQLLGACDNLKAAGLTDRIELLKSSVTDLPLPSQSTDVIISDIPFGKKFKLGKDIKSILQEMERVLRVGGAMVLLLSEDHHRHLTDCGGSSIPLTSKGHIAEPEMKTLSNPDRTGAPDTASPSQRASSVQCLGRMRPCGSLVPVESFKVSLGKTDAFICKYKKAQASGLSSAECHEPGAHTEMAAMQESPSLQDSL | failed
17 | SWKQAVRPCLRLPNFRFDWTSFNVLSAQKRWVKSFSTAVSIKEDPFWSAPLKKVLENHPETQYAYPDSTTVLECARGLVRDDLSSVLVFENVQDKLRWIGIFSERDIVRKVASQGLPLEKTQLKKAYTTRDRVETITVDKTVQDVVDILVSKDVQNIAVLYQKKHGDAFREDCYGVLTSRDLSTFFLSIPENDRSFFEQQTVKDVLESKGLDRSGDNTVYQIHQSVSVDEAIQKMDDHKVGTLLVTQSGK | failed
18 | MYIHLGDDFVVSTREIVAIFDYKAKTSPIVEEFLSKQKQRIVSSNSTPKSIVVTLQSIYFSPLASGTLKKRAQSKPEIDSLEHHHHHH | failed
